# Target: His6-ybbR-alpha-SMA, recombinant, assembled into filaments (human, UniProt P62736 1-377)
# Experiment: co-sedimentation; actin co-pelleting (spin-down) assay: 4 µM α-SMA pre-assembled into filaments (with Rhodamine muscle actin), 0.4 µM PLCG1 and 1 µM myosin in 50 mM HEPES pH 7.4, 150 mM NaCl, 1 mM TCEP, 2 h at room temperature; high-speed centrifugation; supernatant and pellet on SDS-PAGE
# Settings: both partners purified
row,binding result,Binder
1,binds,"Rat PLCG1 (aa 21-1215) WT, recombinant (enzyme, UniProt P10686 21-1215, looked up, Phospholipase C gamma 1, rat, aa 21-1215; PDB 6PBC (cited) is the structure of PLCG1 from that work; also called wild-type PLCG1; PLCG1 WT; source: expressed and purified as previous published protocol (Hajicek et al, 2019)) EVLHLCRSLEVGTVMTLFYSKKSQRPERKTFQVKLETRQITWSRGADKIEGSIDIREIKEIRPGKTSRDFDRYQEDPAFRPDQSHCFVILYGMEFRLKTLSLQATSEDEVNMWIKGLTWLMEDTLQAATPLQIERWLRKQFYSVDRNREDRISAKDLKNMLSQVNYRVPNMRFLRERLTDFEQRSGDITYGQFAQLYRSLMYSAQKTMDLPFLETNTLRTGERPELCQVSLSEFQQFLLEYQGELWAVDRLQVQEFMLSFLRDPLREIEEPYFFLDELVTFLFSKENSVWNSQLDAVCPETMNNPLSHYWISSSHNTYLTGDQFSSESSLEAYARCLRMGCRCIELDCWDGPDGMPVIYHGHTLTTKIKFSDVLHTIKEHAFVASEYPVILSIEDHCSIAQQRNMAQHFRKVLGDTLLTKPVDIAADGLPSPNQLKRKILIKHKKLAEGSAYEEVPTSVMYSENDISNSIKNGILYLEDPVNHEWYPHYFVLTSSKIYYSEETSSDQGNEDEEEPKEASGSTELHSSEKWFHGKLGAGRDGRHIAERLLTEYCIETGAPDGSFLVRESETFVGDYTLSFWRNGKVQHCRIHSRQDAGTPKFFLTDNLVFDSLYDLITHYQQVPLRCNEFEMRLSEPVPQTNAHESKEWYHASLTRAQAEHMLMRVPRDGAFLVRKRNEPNSYAISFRAEGKIKHCRVQQEGQTVMLGNSEFDSLVDLISYYEKHPLYRKMKLRYPINEEALEKIGTAEPDYGALYEGRNPGFYVEANPMPTFKCAVKALFDYKAQREDELTFTKSAIIQNVEKQDGGWWRGDYGGKKQLWFPSNYVEEMINPAILEPEREHLDENSPLGDLLRGVLDVPACQIAIRPEGKNNRLFVFSISMPSVAQWSLDVAADSQEELQDWVKKIREVAQTADARLTEGKMMERRKKIALELSELVVYCRPVPFDEEKIGTERACYRDMSSFPETKAEKYVNKAKGKKFLQYNRLQLSRIYPKGQRLDSSNYDPLPMWICGSQLVALNFQTPDKPMQMNQALFMAGGHCGYVLQPSTMRDEAFDPFDKSSLRGLEPCVICIEVLGARHLPKNGRGIVCPFVEIEVAGAEYDSTKQKTEFVVDNGLNPVWPAKPFHFQISNPEFAFLRFVVYEEDMFSDQNFLAQATFPVKGLKTGYRAVPLKNNYSEDLELASLLIKIDIFPAK"
2,binds,"Rat PLCG1 (aa 21-1215) D1165H, recombinant (enzyme, UniProt P10686 21-1215, looked up, Phospholipase C gamma 1, rat, aa 21-1215, with the human leukemia/lymphoma-associated mutation D1165H; also called recombinant PLCG1 D1165H protein; source: expressed and purified as previous published protocol (Hajicek et al, 2019)) EVLHLCRSLEVGTVMTLFYSKKSQRPERKTFQVKLETRQITWSRGADKIEGSIDIREIKEIRPGKTSRDFDRYQEDPAFRPDQSHCFVILYGMEFRLKTLSLQATSEDEVNMWIKGLTWLMEDTLQAATPLQIERWLRKQFYSVDRNREDRISAKDLKNMLSQVNYRVPNMRFLRERLTDFEQRSGDITYGQFAQLYRSLMYSAQKTMDLPFLETNTLRTGERPELCQVSLSEFQQFLLEYQGELWAVDRLQVQEFMLSFLRDPLREIEEPYFFLDELVTFLFSKENSVWNSQLDAVCPETMNNPLSHYWISSSHNTYLTGDQFSSESSLEAYARCLRMGCRCIELDCWDGPDGMPVIYHGHTLTTKIKFSDVLHTIKEHAFVASEYPVILSIEDHCSIAQQRNMAQHFRKVLGDTLLTKPVDIAADGLPSPNQLKRKILIKHKKLAEGSAYEEVPTSVMYSENDISNSIKNGILYLEDPVNHEWYPHYFVLTSSKIYYSEETSSDQGNEDEEEPKEASGSTELHSSEKWFHGKLGAGRDGRHIAERLLTEYCIETGAPDGSFLVRESETFVGDYTLSFWRNGKVQHCRIHSRQDAGTPKFFLTDNLVFDSLYDLITHYQQVPLRCNEFEMRLSEPVPQTNAHESKEWYHASLTRAQAEHMLMRVPRDGAFLVRKRNEPNSYAISFRAEGKIKHCRVQQEGQTVMLGNSEFDSLVDLISYYEKHPLYRKMKLRYPINEEALEKIGTAEPDYGALYEGRNPGFYVEANPMPTFKCAVKALFDYKAQREDELTFTKSAIIQNVEKQDGGWWRGDYGGKKQLWFPSNYVEEMINPAILEPEREHLDENSPLGDLLRGVLDVPACQIAIRPEGKNNRLFVFSISMPSVAQWSLDVAADSQEELQDWVKKIREVAQTADARLTEGKMMERRKKIALELSELVVYCRPVPFDEEKIGTERACYRDMSSFPETKAEKYVNKAKGKKFLQYNRLQLSRIYPKGQRLDSSNYDPLPMWICGSQLVALNFQTPDKPMQMNQALFMAGGHCGYVLQPSTMRDEAFDPFDKSSLRGLEPCVICIEVLGARHLPKNGRGIVCPFVEIEVAGAEYDSTKQKTEFVVDNGLNPVWPAKPFHFQISNPEFAFLRFVVYEEHMFSDQNFLAQATFPVKGLKTGYRAVPLKNNYSEDLELASLLIKIDIFPAK"

# From PMC12457681, “Hyperactive PLCG1 induces cell-autonomous and bystander T cell activation and drug resistance” (EMBO Reports, 2025)
